Results reported in the supplement of paper PMC10567573.

B1: FUT8 (parent)
chain: YPSYKVREKIETVKYPTYPEAEK

Variants of: B1
Assay: protein stability index of a GFP-peptide fusion (GPS, HEK-293T) (PSI 1-6); higher = more stable
Conditions: c terminus: native
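Note: lentivirally expressed fusions sorted by FACS into six bins by GFP to DsRed ratio, PSI derived from sequencing read proportions per bin multiplied by bin number.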

Variant | protein stability index
YPSYKVREKIETVKKPTYPEAEK | 5.03
YPSYKVREKIETVKIPTYPEAEK | 4.58
YPSYKVREKIETVKGPTYPEAEK | 4.85
YPSYKVREKIETVKMPTYPEAEK | 4.48
YPSYKVREKIETVKSPTYPEAEK | 4.64
YPSYKVREKIETVKCPTYPEAEK | 3.88
YPSYKVREKIETVKRPTYPEAEK | 4.22
YPSYKVREKIETVKAPTYPEAEK | 3.39
YPSYKVREKIETVKVPTYPEAEK | 4.18
YPSYKVREKIETVKFPTYPEAEK | 4.49
YPSYKVREKIETVKHPTYPEAEK | 4.72
YPSYKVREKIETVKTPTYPEAEK | 3.77
YPSYKVREKIETVKQPTYPEAEK | 4.77
YPSYKVREKIETVKWPTYPEAEK | 2.88
YPSYKVREKIETVKLPTYPEAEK | 4.33
YPSYKVREKIETVKPPTYPEAEK | 4.45
YPSYKVREKIETVKEPTYPEAEK | 4.59
YPSYKVREKIETVKDPTYPEAEK | 5.2
YPSYKVREKIETQKYPTYPEAEK | 4.49
YPSYKVREKIETPKYPTYPEAEK | 4.24
YPSYKVREKIETAKYPTYPEAEK | 4.7
YPSYKVREKIETRKYPTYPEAEK | 4.34
YPSYKVREKIETEKYPTYPEAEK | 4.79
YPSYKVREKIETGKYPTYPEAEK | 4.66

Variant | protein stability index
YPSYKVREKIETNKYPTYPEAEK | 4.26
YPSYKVREKIETYKYPTYPEAEK | 3.72
YPSYKVREKIETHKYPTYPEAEK | 3.97
YPSYKVREKIETWKYPTYPEAEK | 3.04
YPSYKVREKIETKKYPTYPEAEK | 4.62
YPSYKVREKIETCKYPTYPEAEK | 4.12
YPSYKVREKIETTKYPTYPEAEK | 4.18
YPSYKVREKIETSKYPTYPEAEK | 4.69
YPSYKVREKIETDKYPTYPEAEK | 4.64
YPSYKVREKIETMKYPTYPEAEK | 3.7
YPSYKVREKIETIKYPTYPEAEK | 4.29
YPSYKVREKIETFKYPTYPEAEK | 3.77
YPSYKVREKIETLKYPTYPEAEK | 4.29
YPSYKVREKIETVYYPTYPEAEK | 3.43
YPSYKVREKIETVNYPTYPEAEK | 4.62
YPSYKVREKIETVFYPTYPEAEK | 2.73
YPSYKVREKIETVWYPTYPEAEK | 1.68
YPSYKVREKIETVAYPTYPEAEK | 4.17
YPSYKVREKIETVVYPTYPEAEK | 3.65
YPSYKVREKIETVEYPTYPEAEK | 4.03
YPSYKVREKIETVPYPTYPEAEK | 4.09
YPSYKVREKIETVLYPTYPEAEK | 2.97
YPSYKVREKIETVQYPTYPEAEK | 4.21
YPSYKVREKIETVIYPTYPEAEK | 3.88
